Reference: publication PMC4989918

Assays:
[1] = biological target: Mb(BgaD_L19) displayed on yeast; test: flow cytometry on cells
[2] = biological target: Mb(BgaD_L23) displayed on yeast; test: flow cytometry on cells
[3] = biological target: Mb(BgaD_L14), purified monobody; test: bead-based binding assay read by flow cytometry

B1: BgaD-D, β-galactosidase from Bacillus circulans ATCC 31382 (residues 36–847), biotinylated (enzyme)
chain: GNSVSYDGERRVNFNENWRFQRETNGSIAGAQNPGFDDSSWRKLNLPHDWSIELDFNKNSLATHEGGYLDGGIGWYRKTFTIPESMKGKRISLDFDGVYMNSTTYLNGEVLGTYPFGYNAFSYDISDKLYKDGRANVLVVKVNNTQPSSRWYSGSGIYRNVYLTVTDPIHVARYGTFVTTPNLEKSIKEDRADVNIKTKISNDAAEAKQVKIKSTIYDGAGNTVQTVETEEKTAAAGTVTPFEQNTVIKQPKLWSIDKPYRYNLVTEVIVGGQTVDTYETKFGVRYFKFDENEGFSLNGEYMKLHGVSMHHDLGALGAATNARGVERQMQIMKDMGVNAIRVTHNPASPELLEAANKLGLFIIEEAFDSWAQSKKPYDYGRFFNAWAEHDIKEMVDRGKNEPAIIMWSIGNEIYDTTNAAGVETARNLVGWVKEIDTTRPTTIGEDKTRGDKVNVTPINSYIKEIFNIVDVVGLNYSENNYDGYHKQNPSWKLYGSETSSATRSRGVYTHPYQYNQSTKYADLQQSSYDNDYVGWGRTAEDAWKYDRDLKHIAGQFIWTGFDYIGEPTPYYNSYPAKSSYFGAVDTAGFPKDIFYYYQSQWKKEPMVHLLPHWNWKEGEKVRVLAYTNASKVELVLNGESLGEKNYDNKQTSWGAPYKETKDGKTYLEWAVPFKPGKLEAVAKDENGKVIARDQVVTAGEPASVRLTADRKVVKADGTDLSFITADIVDSKGIVVPDADHLITFNVTGQGELAGVDNGNASSVERYKDNKRKAFSGKALAIVQSSKLSGKITVHASVAGLSSDSTSVFTVTP
modifications: biotin on the biotin-acceptor tag (in vivo biotinylation)
Q: Which Kd [1] does the source give for B1 here?
A: 600 nM

Q: And the Kd [2]?
A: 12 nM

Q: What about the Kd [3] of the same binder?
A: 31 nM
